Experimental data reported in paper PMC11601447.
Values belong to the substance of their own block, whether it stands above or below them.

Legend:
[1] = molecular target: bortezomib-bound hClpP (human) (UniProt Q16740); assay: cryo-EM structure
[2] = molecular target: hClpP^dCTE-S153A (human) (UniProt Q16740); assay: cryo-EM structure
[3] = molecular target: hClpX E285A (human) (UniProt O76031); assay: negative stain EM

- stoichiometry N [1]: 14
Substance: bortezomib-bound hClpP (from UniProt Q16740 58-277) (enzyme)

- stoichiometry N [2]: 14
Substance: hClpP^dCTE-S153A (from UniProt Q16740 58-277) (enzyme)

- stoichiometry N [3]: 6
Substance: hClpX E285A (from UniProt O76031 57-633) (enzyme)
